# US10876098B2, “Polynucleotide, host cell and a method to recombinantly produce the protein encoded by said polynucleotide having peroxygenative activity” (CONSEJO SUPERIOR DE INVESTIGACIONES CIENTIFICAS (CSIC), priority 2015, dated 2020)
# B1: JaWa: PaDa-I variant with added mutations G241D and R257K, SEQ ID NO: 24 (protein)
# chain: MKYFPLFPTLVYAVGVVAFPDYASLAGLSQQELDAIIPTLEAREPGLPPGPLENSSAKLVNDEAHPWKPLRPGDIRGPCPGLNTLASHGYLPRNGVATPAQIINAVQEGFNFDNQAAIFATYAAHLVDGNLITDLLSIGRKTRLTGPDPPPPASVGGLNEHGTFEGDASMTRGDAFFGNNHDFNETLFEQLVDYSNRFGGGKYNLTVAGELRFKRIQDSIATNPNFSFVDFRFFTAYGETTFPANLFVDGRRDDGQLDMDAARSFFQFSRMPDDFFRAPSPRSDTGVEVVVQAHPMQPGKNVGKINSYTVDPTSSDFSTPCLMYEKFVNITVKSLYPNPTVQLRKALNTNLDFLFQGVAAGCTQVFPYGRD
# How the values were obtained:
# [1] = Propranolol transformation reaction analysed by HPLC-PDA; assay type: biochemical; conditions: absence of ascorbic acid
# Procedure: FIG. 13 Chromatogram showing the enzyme reactions.
# (§1) The reactions were analysed by means of chromatography in reverse phase (HPLC). The equipment was composed of a tertiary pump (Varian-Agilent Technologies, USA) coupled to an autosampler (Merck Millipore, MA, USA); for the separation, a Zorbax Eclipse plus C18 column (15 cm×4.6 cm) at 40° C. was used and the detection was performed using a photodiode detector (PDA) (Varian, Agilent Technologies, USA). The mobile phase selected was a gradient from 10% methanol and 90% ddH2O (in both cases with 0.1% of acetic acid) up to 90% methanol and 10% ddH2O at a flow rate of 0.8 mL/min. The reaction was quantified at 280 nm (based on HPLC standards). […] The standard deviations were less than 5% in all cases.
# [2] = Dual colorimetric HTS, naphthalene-Fast Red (peroxygenase activity on microplate); assay type: biochemical; conditions: parental PaDa-I; S. cerevisiae microcultures
# Procedure: (§2) The mother plates were centrifuged (Eppendorf 5810R centrifuge, Germany) for 10 minutes at 3,500 RPM and 4° C. 20 μL of supernatant were transferred from these mother plates to two replica daughter plates with the help of a Freedom EVO liquid handling robot (Tecan, Switzerland).
# (§3) The plates were briefly agitated and initial absorbance was measured at 469 nm and 510 nm, respectively, using a plate reader for such purpose ([…]ax Plus 384, Molecular Devices, USA). […] The plates were kept at room temperature until they turned orange (DMP) or red (naphthol-Fast Red), at which time the absorbance was newly measured. The values were normalised against the parental of each plate. In order to rule out false positives, two re-screenings were carried out, in addition to a third re-screening wherein kinetic stability was determined (T50) (P. Molina-Espeja, et al. Appl. Environ. Microbiol. 2014. 80, 3496-3507).
# [3] = Optimum pH for ABTS; assay type: biochemical
# [4] = Isoelectric point by two-dimensional electrophoresis; assay type: physicochemical
# Procedure: The analyses were performed using an Autoflex III MALDI-TOF-TOF unit with smartbeam laser (Bruker Daltonics). The samples were evaluated in positive mode. The method was calibrated using BSA with standard, thereby covering a range of 15,000 to 70,000 Da. In order to determine the isoelectric point of the UPO variants, 8 μg of pure enzyme were subjected to two-dimensional electrophoresis. These experiments were carried out at the Proteomic and Genomic Service of the Biological Research Centre (CIB-CSIC, Spain).
# [5] = Dual colorimetric HTS, DMP (peroxidase activity on microplate); assay type: biochemical; conditions: parental PaDa-I; S. cerevisiae microcultures
# Procedure: as §2, §3
# [6] = Total turnover number (TTN) for synthesis of 5′-hydroxypropranolol from propranolol; assay type: biochemical; conditions: 0.03 μM enzyme, propranolol, 2 mM H2O2 added every 10 minutes
# Procedure: FIG. 15 Calculation of the total turnover number (TTN) of AaeUPO and SoLo.
# as §1
# [7] = Stability at high acetonitrile concentrations; assay type: physicochemical; conditions: 5 hours of incubation, 50% to 100% co-solvent, 20° C.; versus PaDa-I
# Procedure: FIG. 2 Biochemical characteristics of the variants of the invention. A) Spectroscopic characteristics of the PaDa-I (thin line) and JaWa (thick line) mutants at rest. AU, arbitrary units. B) Thermostability analysis (T50) of the PaDa-I (black circles) and JaWa (white circles) mutants. The experiments were carried out using culture supernatants and each point represents the average value and standard deviation of three individual experiments. C) Stability of the PaDa-I (black bars) and JaWa (grey bars) mutants at high acetonitrile concentrations. The stabilities were determined after 5 hours of incubation of the enzyme in increasing concentrations of the co-solvent (from 50% to 100%) at 20° C. in 10 mM pH 7.0 potassium phosphate buffer. […] The error bars indicate standard deviations.
# [8] = 4-AAP assay with propranolol in the presence of ascorbic acid (peroxygenase activity); assay type: biochemical; conditions: 0.2 μM pure variant, 5 mM propranolol, 2 mM H2O2, with and without 4 mM ascorbic acid
# Procedure: FIG. 9 Assay of 4-AAP (4-aminoantipyrine) with different pure UPO variants (AaeUPO1, PaDa-1 and JaWa). […] Each reaction was performed in triplicate.
# The mother plates were centrifuged (Eppendorf 5810R centrifuge, Germany) for 10 minutes at 3,500 RPM and 4° C. 20 μL of supernatant of these mother plates were transferred to two replica daughter plates with the help of a Freedom EVO liquid-handling robot (Tecan, Switzerland).
# Without ascorbic, the plates were incubated for 30 minutes and with ascorbic for 60 minutes. […] The plates were briefly agitated and absorbance measured at 530 nm, using a plate reader for such purpose ([…]ax Plus 384, Molecular Devices, USA). The values were normalised against the parental of each plate. To rule out false positives, re-screenings were carried out, in addition to a third re-screening wherein kinetic stability was determined (T50) (P. Molina-Espeja, et al. Appl. Environ. Microbiol. 2014. 80, 3496-3507).
# [9] = Naphthalene transformation reaction analysed by HPLC-PDA; assay type: biochemical
# Procedure: A) Products formed after 15 minutes of reaction stopped with 20 μL of HCl 37% (PaDa-I, black bars; JaWa, grey bars). […] C) and D) Monitoring of the reaction for 270 minutes (without adding HCl) for the PaDa-I (C) and JaWa (D) mutants.
# The reactions were analysed by means of chromatography in reverse phase (HPLC). The equipment is composed by a tertiary pump (Varian-Agilent Technologies, USA) coupled to an autosampler (Merck Millipore, MA, USA); an ACE C18 PFP column was used for separation (pentafluorophenyl, 15 cm×4.6 cm) at 45° C. and detection was performed using a photodiode detector (PDA) (Varian-Agilent Technologies, USA). The mobile phase selected was 70% methanol and 30% ddH2O (in both cases with 0.1% of acetic acid) at a flow rate of 0.8 mL/min. The reaction was quantified at 268 nm (based on standard HPLCs). […] For long reaction times, the conditions used were those described earlier but without stopping the reaction with HCl. A sample of 10 μL was injected and analysed at different reaction times (from 1 to 270 minutes).
# [10] = Optimum pH for naphthalene; assay type: biochemical
# [11] = 15 minutes of reaction stopped with HCl
# [12] = 15 minutes of reaction stopped with HCl, 6.6 nM enzyme, 1 mM naphthalene, 1 mM H2O2
molecule,measurement,setting,value
B1,regioselectivity against 5′-hydroxypropranolol,"[1]; 0.03 μM enzyme, 4 mM propranolol, 2 mM H2O2",99%
same,amount of 5′-hydroxypropranolol produced,"[1]; compared among AaeUPO, PaDa-I, JaWa, SoLo",produce the largest amount of 5′-hydroxypropranolol
same,peroxygenase activity on microplate relative to parental,[2],doubled that of its parental
same,Optimum pH for ABTS,[3],4.0
same,pI,[4],5.3
same,peroxidase activity on microplate relative to parental,[5],reduced to half
same,"TTNs, With ascorbic acid",[6]; 4 mM ascorbic acid,"48,000"
same,"TTNs, Without ascorbic acid",[6]; absence of ascorbic acid,"15,000"
same,stability in the presence of acetonitrile,[7],higher stability in the presence of acetonitrile
same,activity against propranolol in 4-AAP assay among pure UPO variants,[8],greatest activity against propranolol
same,"1,4-naphthoquinone (oxidation product) detected",[9]; [11],"without detectable traces of 1,4-naphthoquinone"
same,"increase in the production of 1-naphthol, more than PaDa-I",[9]; [11],156%
same,"regioselectivity, 1-naphthol",[9]; [12],92%
same,"regioselectivity, 2-naphthol",[9]; [12],8%
same,time at which formation of the epoxide intermediary reached its maximum,[9]; 270 minute reaction at pH 7.0,~40 min
same,production of 1-naphthol,[9]; 270 minutes at pH 7.0 without stopping the reaction,0.32 mM
same,"total turnover numbers (TTN), 1-naphthol",[9]; calculated using the production value of 1-naphthol after 270 minutes,"~50,000 μmoles of product/μmoles of en"
same,regioselectivity against 1-naphthol,"[9]; long reaction times, 270 minutes at pH 7.0 without stopping the reaction",97%
same,Optimum pH for naphthalene,[10],6.0
